Test in all cases: cell-based or functional assay
Assay [1] has as its target G protein of RSV B/18537 (virus, ATCC Cat. No. VR-1580) (Respiratory syncytial virus B/18537) (UniProt P20896).
The target in assay [2] is G protein of RSV A/A2 (virus, ATCC Cat. No. VR-1540) (Respiratory syncytial virus A/A2) (UniProt P03423).
Assay [3] concerns the target G protein of RSV A/Long (virus, ATCC Cat. No. VR-26) (Respiratory syncytial virus A/Long) (UniProt P20895).

“CR9514 (an antibody based on 3D3, comprising the heavy and light chain variable region of 3D3)”: the Neutralization IC50 (plaque reduction assay, Vero cells) is 0.033 µg/mL in assay [1], 0.0407 µg/mL in assay [2] and 0.017 µg/mL in assay [3].

The values are drawn from US20160145321A1.
